From publication PMC11922929, “Functional recoding of Chlamydomonas reinhardtii thioredoxin type-h into photosynthetic type-f by switching selectivity determinants” (Frontiers in Plant Science, 2025)
One block for each molecule: values may come before it.

Legend:
CrFBPase = target: T1, CrFBPase (Chlamydomonas reinhardtii, UniProt A8IKQ0); experiment: coupled spectrophotometric assay of FBP hydrolysis (NADP+ reduction at […] nm); type: biochemical; settings: 0.6 mM FBP, 10 mM MgCl2, 30 mM Tris pH 7.9, 20 °C; FBPase pre-incubated with 1 mM DTT, with or without 50 µM thioredoxin
T1 construct: gene CHLRE_12g510650v5; recombinant, N-terminal poly-histidine tag, pET plasmid, E. coli BL21(DE3), Ni-NTA purified
T1 sequence (A8IKQ0 29-415): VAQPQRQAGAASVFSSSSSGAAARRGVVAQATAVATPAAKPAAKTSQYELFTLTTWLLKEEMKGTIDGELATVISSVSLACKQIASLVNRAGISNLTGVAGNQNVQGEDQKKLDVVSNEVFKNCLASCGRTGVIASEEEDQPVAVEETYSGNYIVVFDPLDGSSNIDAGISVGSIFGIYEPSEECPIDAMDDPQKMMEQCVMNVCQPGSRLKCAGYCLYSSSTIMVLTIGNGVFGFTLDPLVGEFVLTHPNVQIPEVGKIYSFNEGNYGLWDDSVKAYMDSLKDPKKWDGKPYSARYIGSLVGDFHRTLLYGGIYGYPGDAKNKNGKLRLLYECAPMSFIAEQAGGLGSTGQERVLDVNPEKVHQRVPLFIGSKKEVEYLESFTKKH

[1] = target: Chlamydomonas reinhardtii fructose-1,6-bisphosphatase (CrFBPase) (Chlamydomonas reinhardtii)

Molecule: O=P(O)(O)OC[C@H]1OC(O)(COP(=O)(O)O)[C@@H](O)[C@@H]1O (stereo partly shown) [FBP]
- coupled spectrophotometric assay of FBP hydrolysis (NADP+ reduction at 340 nm) (CrFBPase): The activity of FBPase was determined in the direction of FBP hydrolysis

- FBPase activity (coupled spectrophotometric assay, NADP+ reduction at 340 nm, initial velocity) after 5 min pre-incubation with 1 mM DTT and 50 µM TRXf2, 20°C, n=4 [1]: 106 ΔAbs/min
- fold increase of FBPase activity after pre-incubation with 1 mM DTT and 50 µM TRXf2 [1]: 6 fold
Molecule: Chlamydomonas reinhardtii thioredoxin f2 (CrTRXf2) (enzyme)

- FBPase activity (coupled spectrophotometric assay, NADP+ reduction at 340 nm, initial velocity) after 5 min pre-incubation with 1 mM DTT and 50 µM TRXχ1, 20°C, n=4 [1]: 172 ΔAbs/min
- fold increase of FBPase activity after pre-incubation with 1 mM DTT and 50 µM TRXχ1 [1]: 9.8 fold
Molecule: TRXχ1 (chimera 1; TRXh1-K49,K69,K70,K78,K99) (from UniProt P80028 1-113) (enzyme)

- FBPase activity (coupled spectrophotometric assay, NADP+ reduction at 340 nm, initial velocity) after 5 min pre-incubation with 1 mM DTT and 50 µM TRXh1, 20°C, n=4 [1]: 59 ΔAbs/min
- fold increase of FBPase activity after pre-incubation with 1 mM DTT and 50 µM TRXh1 [1]: 3.4 fold
B1: Chlamydomonas reinhardtii thioredoxin h1 (CrTRXh1) (enzyme)
chain: MGGSVIVIDSKAAWDAQLAKGKEEHKPIVVDFTATWCGPCKMIAPLFETLSNDYAGKVIFLKVDVDAVAAVAEAAGITAMPTFHVYKDGVKADDLVGASQDKLKALVAKHAAA
